Data published in paper PMC9957003, “Functional Analyses of Rare Germline Missense BRCA1 Variants Located within and outside Protein Domains with Known Functions” (Genes, 2023).
Residue numbers refer to the chain shown, from its start.

B1: BRCA1 p.Ile925Val (full-length, mCherry-tagged) (natural protein, human, UniProt P38398 1-1863, looked up)
chain: MDLSALRVEEVQNVINAMQKILECPICLELIKEPVSTKCDHIFCKFCMLKLLNQKKGPSQCPLCKNDITKRSLQESTRFSQLVEELLKIICAFQLDTGLEYANSYNFAKKENNSPEHLKDEVSIIQSMGYRNRAKRLLQSEPENPSLQETSLSVQLSNLGTVRTLRTKQRIQPQKTSVYIELGSDSSEDTVNKATYCSVGDQELLQITPQGTRDEISLDSAKKAACEFSETDVTNTEHHQPSNNDLNTTEKRAAERHPEKYQGSSVSNLHVEPCGTNTHASSLQHENSSLLLTKDRMNVEKAEFCNKSKQPGLARSQHNRWAGSKETCNDRRTPSTEKKVDLNADPLCERKEWNKQKLPCSENPRDTEDVPWITLNSSIQKVNEWFSRSDELLGSDDSHDGESESNAKVADVLDVLNEVDEYSGSSEKIDLLASDPHEALICKSERVHSKSVESNIEDKIFGKTYRKKASLPNLSHVTENLIIGAFVTEPQIIQERPLTNKLKRKRRPTSGLHPEDFIKKADLAVQKTPEMINQGTNQTEQNGQVMNITNSGHENKTKGDSIQNEKNPNPIESLEKESAFKTKAEPISSSISNMELELNIHNSKAPKKNRLRRKSSTRHIHALELVVSRNLSPPNCTELQIDSCSSSEEIKKKKYNQMPVRHSRNLQLMEGKEPATGAKKSNKPNEQTSKRHDSDTFPELKLTNAPGSFTKCSNTSELKEFVNPSLPREEKEEKLETVKVSNNAEDPKDLMLSGERVLQTERSVESSSISLVPGTDYGTQESISLLEVSTLGKAKTEPNKCVSQCAAFENPKGLIHGCSKDNRNDTEGFKYPLGHEVNHSRETSIEMEESELDAQYLQNTFKVSKRQSFAPFSNPGNAEEECATFSAHSGSLKKQSPKVTFECEQKEENQGKNESNIKPVQTVNVTAGFPVVGQKDKPVDNAKCSIKGGSRFCLSSQFRGNETGLITPNKHGLLQNPYRIPPLFPIKSFVKTKCKKNLLEENFEEHSMSPEREMGNENIPSTVSTISRNNIRENVFKEASSSNINEVGSSTNEVGSSINEIGSSDENIQAELGRNRGPKLNAMLRLGVLQPEVYKQSLPGSNCKHPEIKKQEYEEVVQTVNTDFSPYLISDNLEQPMGSSHASQVCSETPDDLLDDGEIKEDTSFAENDIKESSAVFSKSVQKGELSRSPSPFTHTHLAQGYRRGAKKLESSEENLSSEDEELPCFQHLLFGKVNNIPSQSTRHSTVATECLSKNTEENLLSLKNSLNDCSNQVILAKASQEHHLSEETKCSASLFSSQCSELEDLTANTNTQDPFLIGSSKQMRHQSESQGVGLSDKELVSDDEERGTGLEENNQEEQSMDSNLGEAASGCESETSVSEDCSGLSSQSDILTTQQRDTMQHNLIKLQQEMAELEAVLEQHGSQPSNSYPSIISDSSALEDLRNPEQSTSEKAVLTSQKSSEYPISQNPEGLSADKFEVSADSSTSKNKEPGVERSSPSKCPSLDDRWYMHSCSGSLQNRNYPSQEELIKVVDVEEQQLEESGPHDLTETSYLPRQDLEGTPYLESGISLFSDDPESDPSEDRAPESARVGNIPSSTSALKVPQLKVAESAQSPAAAHTTDTAGYNAMEESVSREKPELTASTERVNKRMSMVVSGLTPEEFMLVYKFARKHHITLTNLITEETTHVVMKTDAEFVCERTLKYFLGIAGGKWVVSYFWVTQSIKERKMLNEHDFEVRGDVVNGRNHQGPKRARESQDRKIFRGLEICCYGPFTNMPTDQLEWMVQLCGASVVKELSSFTLGTGVHPIVVVQPDAWTEDNGFHAIGQMCEAPVVTREWVLDSVALYQCQELDTYLIPQIPHSHY
notes: BRCA1, human, full-length, rare germline missense variant introduced in the WT plasmid; Made by site-directed mutagenesis of the plasmid of m1; also called c.2773A > G; source: HEK293FT, transiently co-transfected, in lysate
B2: BRCA1 p.Thr1256Ile (full-length, mCherry-tagged) (natural protein, human, UniProt P38398 1-1863, looked up)
chain: B1 chain with V925I, T1256I
notes: BRCA1, human, full-length, rare germline missense variant introduced in the WT plasmid; Made by site-directed mutagenesis of the plasmid of m1; also called c.3767C > T; source: HEK293FT, transiently co-transfected, in lysate
B3: BRCA1 p.Gly890Arg (full-length, mCherry-tagged) (natural protein, human, UniProt P38398 1-1863, looked up)
chain: B1 chain with G890R, V925I
notes: BRCA1, human, full-length, rare germline missense variant introduced in the WT plasmid; Made by site-directed mutagenesis of the plasmid of m1; also called c.2668G > A; source: HEK293FT, transiently co-transfected, in lysate
B4: BRCA1 p.Arg610Thr (full-length, mCherry-tagged) (natural protein, human, UniProt P38398 1-1863, looked up)
chain: B1 chain with R610T, V925I
notes: BRCA1, human, full-length, rare germline missense variant introduced in the WT plasmid; Made by site-directed mutagenesis of the plasmid of m1; also called c.1829G > C; source: HEK293FT, transiently co-transfected, in lysate
B5: BRCA1 p.Lys503Arg (full-length, mCherry-tagged) (natural protein, human, UniProt P38398 1-1863, looked up)
chain: B1 chain with K503R, V925I
notes: BRCA1, human, full-length, rare germline missense variant introduced in the WT plasmid; Made by site-directed mutagenesis of the plasmid of m1; also called c.1508A > G; source: HEK293FT, transiently co-transfected, in lysate
B6: BRCA1 p.Val1378Ile (full-length, mCherry-tagged; benign control variant, coiled-coil domain) (natural protein, human, UniProt P38398 1-1863, looked up)
chain: B1 chain with V925I, V1378I
notes: BRCA1, human, full-length, benign control missense variant in the coiled-coil domain, introduced in the WT plasmid; Made by site-directed mutagenesis of the plasmid of m1; also called c.4132G > A; source: HEK293FT, transiently co-transfected, in lysate
B7: BRCA1 p.Met1411Thr (full-length, mCherry-tagged; pathogenic control variant, coiled-coil domain) (natural protein, human, UniProt P38398 1-1863, looked up)
chain: B1 chain with V925I, M1411T
notes: BRCA1, human, full-length, pathogenic control missense variant in the coiled-coil domain, introduced in the WT plasmid; Made by site-directed mutagenesis of the plasmid of m1; also called c.4232T > C; source: HEK293FT, transiently co-transfected, in lysate

target: T1, BARD1-V5 WT (BRCA1-Associated RING Domain protein 1) (UniProt Q99728 1-777); experiment: co-IP; HEK293FT co-transfected with BRCA1 WT or variant and BARD1-V5; 2 mg lysate protein incubated 90 min at 4 °C with V5 antibody coupled to Dynabeads Protein G; non-denaturing elution; BRCA1 in the IP detected by anti-BRCA1 blot, normalised to the anti-V5 signal, % of WT; settings: partners not purified
T1 construct: BARD1 (BRCA1-Associated RING Domain protein 1), wild type; also called pcDNA6.2-BARD1-V5; source: HEK293FT, transiently co-transfected, in lysate
T1 sequence (looked up): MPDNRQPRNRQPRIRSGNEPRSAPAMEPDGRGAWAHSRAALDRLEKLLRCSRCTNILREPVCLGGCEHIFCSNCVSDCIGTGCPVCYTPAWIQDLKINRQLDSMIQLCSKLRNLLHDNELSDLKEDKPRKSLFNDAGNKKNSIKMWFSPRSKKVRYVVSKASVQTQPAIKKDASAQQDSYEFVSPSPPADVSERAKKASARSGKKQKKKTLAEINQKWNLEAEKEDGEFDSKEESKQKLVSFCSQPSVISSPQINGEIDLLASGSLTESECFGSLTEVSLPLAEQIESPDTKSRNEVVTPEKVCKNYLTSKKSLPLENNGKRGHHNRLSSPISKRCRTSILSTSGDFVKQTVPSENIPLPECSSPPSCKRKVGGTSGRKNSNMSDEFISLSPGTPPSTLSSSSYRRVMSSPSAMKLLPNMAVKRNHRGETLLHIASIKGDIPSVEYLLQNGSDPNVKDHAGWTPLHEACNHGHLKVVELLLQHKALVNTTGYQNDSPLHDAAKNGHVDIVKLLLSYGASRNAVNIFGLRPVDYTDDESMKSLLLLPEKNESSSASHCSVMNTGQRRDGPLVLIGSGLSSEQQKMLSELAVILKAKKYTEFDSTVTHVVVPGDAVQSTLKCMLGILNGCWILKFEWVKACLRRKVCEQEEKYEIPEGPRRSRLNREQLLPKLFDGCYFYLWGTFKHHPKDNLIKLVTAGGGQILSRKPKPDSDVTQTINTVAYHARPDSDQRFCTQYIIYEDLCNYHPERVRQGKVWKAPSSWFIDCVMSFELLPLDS

Binder | Co-IP BARD1 (% of WT)
B1 | 97 % of WT
B2 | 55 % of WT
B3 | 77 % of WT
B4 | 81 % of WT

target: T2, Flag-PALB2 WT (Partner and Localiser of BRCA2) (UniProt Q86YC2 1-1186); experiment: co-IP; HEK293FT co-transfected with BRCA1 WT or variant and Flag-PALB2; 2 mg lysate protein incubated 90 min at 4 °C with Flag antibody coupled to Dynabeads Protein G; non-denaturing elution; BRCA1 in the IP detected by anti-BRCA1 blot, normalised to the anti-Flag signal, % of WT; settings: partners not purified
T2 construct: PALB2 (Partner and Localiser of BRCA2), wild type; printed both as Flag-PALB2 and as PALB2-Flag; also called PALB2-Flag; pDEST-FRT/T0-Flag-PALB2; source: HEK293FT, transiently co-transfected, in lysate
T2 sequence (looked up): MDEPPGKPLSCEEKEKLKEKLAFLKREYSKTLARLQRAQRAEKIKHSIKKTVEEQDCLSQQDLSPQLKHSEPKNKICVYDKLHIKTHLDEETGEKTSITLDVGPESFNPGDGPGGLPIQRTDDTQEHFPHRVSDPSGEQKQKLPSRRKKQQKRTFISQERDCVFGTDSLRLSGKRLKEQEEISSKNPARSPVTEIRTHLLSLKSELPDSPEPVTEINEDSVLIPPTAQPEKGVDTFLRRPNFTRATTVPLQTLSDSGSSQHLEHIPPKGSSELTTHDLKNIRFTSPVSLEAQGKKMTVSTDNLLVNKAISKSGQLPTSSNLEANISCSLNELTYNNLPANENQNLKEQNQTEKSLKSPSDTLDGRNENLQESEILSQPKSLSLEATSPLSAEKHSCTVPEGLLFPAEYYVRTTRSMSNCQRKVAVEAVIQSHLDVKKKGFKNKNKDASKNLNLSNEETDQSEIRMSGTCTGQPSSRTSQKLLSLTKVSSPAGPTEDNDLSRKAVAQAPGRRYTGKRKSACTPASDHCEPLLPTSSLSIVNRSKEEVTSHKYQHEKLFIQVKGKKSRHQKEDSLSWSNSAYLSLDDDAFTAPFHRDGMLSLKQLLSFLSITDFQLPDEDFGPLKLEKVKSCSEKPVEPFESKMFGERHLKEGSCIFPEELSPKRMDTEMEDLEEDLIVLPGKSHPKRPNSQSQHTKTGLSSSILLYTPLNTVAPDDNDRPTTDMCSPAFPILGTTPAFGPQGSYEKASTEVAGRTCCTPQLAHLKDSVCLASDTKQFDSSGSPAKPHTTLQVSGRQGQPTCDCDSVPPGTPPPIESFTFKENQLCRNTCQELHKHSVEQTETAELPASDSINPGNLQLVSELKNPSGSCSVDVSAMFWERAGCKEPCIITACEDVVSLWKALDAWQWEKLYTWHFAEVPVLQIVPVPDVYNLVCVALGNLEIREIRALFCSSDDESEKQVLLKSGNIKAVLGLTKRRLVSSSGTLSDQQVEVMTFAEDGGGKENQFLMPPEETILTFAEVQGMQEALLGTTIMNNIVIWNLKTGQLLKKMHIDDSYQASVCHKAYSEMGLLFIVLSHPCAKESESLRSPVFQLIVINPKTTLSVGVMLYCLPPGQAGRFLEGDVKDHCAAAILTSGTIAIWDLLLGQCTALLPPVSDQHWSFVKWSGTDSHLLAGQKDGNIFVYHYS

Binder | Co-IP PALB2 (% of WT)
B5 | 18 % of WT
B6 | 72 % of WT
B7 | 11 % of WT
B1 | 88 % of WT
B2 | 79 % of WT
B3 | 89 % of WT
B4 | 56 % of WT
